Reference: publication PMC5576363
Substitutions are numbered along the chain they refer to.

Tests used:
LbuC2c2-dHEPN2 = target: T1, LbuC2c2-dHEPN2 (Leptotrichia buccalis, UniProt C7NBY4 1-1159, R1048A;H1053A); experiment: filter binding
T1 sequence: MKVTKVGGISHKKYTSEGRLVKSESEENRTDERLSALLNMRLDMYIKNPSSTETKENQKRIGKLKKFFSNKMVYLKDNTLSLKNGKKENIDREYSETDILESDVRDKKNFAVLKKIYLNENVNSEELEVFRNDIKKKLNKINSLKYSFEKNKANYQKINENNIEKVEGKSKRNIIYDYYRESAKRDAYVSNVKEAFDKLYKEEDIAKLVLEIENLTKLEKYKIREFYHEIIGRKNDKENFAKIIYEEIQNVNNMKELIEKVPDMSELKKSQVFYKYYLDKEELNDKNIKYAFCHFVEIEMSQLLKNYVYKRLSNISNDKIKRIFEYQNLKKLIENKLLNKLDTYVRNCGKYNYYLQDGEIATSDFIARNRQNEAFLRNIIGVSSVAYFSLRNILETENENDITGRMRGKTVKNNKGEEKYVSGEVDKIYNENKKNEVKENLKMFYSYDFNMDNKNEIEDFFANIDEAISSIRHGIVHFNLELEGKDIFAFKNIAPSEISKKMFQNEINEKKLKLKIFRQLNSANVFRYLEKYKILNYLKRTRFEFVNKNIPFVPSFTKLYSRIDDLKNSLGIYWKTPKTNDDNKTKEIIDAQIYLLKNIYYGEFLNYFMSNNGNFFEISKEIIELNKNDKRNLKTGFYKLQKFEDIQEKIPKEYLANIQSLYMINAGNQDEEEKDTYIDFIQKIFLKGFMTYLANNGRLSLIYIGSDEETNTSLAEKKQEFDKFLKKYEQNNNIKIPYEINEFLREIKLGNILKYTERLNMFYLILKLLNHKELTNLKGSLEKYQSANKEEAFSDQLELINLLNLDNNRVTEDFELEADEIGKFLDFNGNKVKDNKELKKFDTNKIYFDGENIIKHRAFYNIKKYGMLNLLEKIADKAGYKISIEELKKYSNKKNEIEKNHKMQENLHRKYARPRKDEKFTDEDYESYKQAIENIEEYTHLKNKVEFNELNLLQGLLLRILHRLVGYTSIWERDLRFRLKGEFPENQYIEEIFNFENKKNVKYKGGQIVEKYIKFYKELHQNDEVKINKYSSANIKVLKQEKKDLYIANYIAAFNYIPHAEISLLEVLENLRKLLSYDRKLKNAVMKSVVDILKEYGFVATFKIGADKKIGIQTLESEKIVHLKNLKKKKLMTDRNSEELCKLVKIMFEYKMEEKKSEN

LbuC2c2-dHEPN1/dHEPN2 [1] = target: T2, LbuC2c2-dHEPN1/dHEPN2 (Leptotrichia buccalis, UniProt C7NBY4 1-1159, R472A;H477A;R1048A;H1053A); experiment: filter binding
T2 sequence: T1 sequence with R472A, H477A

LbuC2c2-dHEPN1 = target: T3, LbuC2c2-dHEPN1 (Leptotrichia buccalis, UniProt C7NBY4 1-1159, R472A;H477A); experiment: filter binding
T3 sequence: T1 sequence with R472A, H477A, A1048R, A1053H

LbuC2c2-dHEPN1/dHEPN2 [2] = target: T2, LbuC2c2-dHEPN1/dHEPN2; experiment: EMSA
LbuC2c2-R1079A = target: T4, LbuC2c2-R1079A (Leptotrichia buccalis, UniProt C7NBY4 1-1159, R1079A); experiment: filter binding
T4 sequence: T1 sequence with A1048R, A1053H, R1079A

B1: mature crRNA-A_GG (crLbu_A_GG_AES432) (structured_RNA)
RNA: GGCCACCCCAAAAAUGAAGGGGACUAAAACAGGGGCAGAGAUGAUGACCCU
Question: What does the source list for B1?
Answer: Kd (LbuC2c2-dHEPN2): 11.5 ± 2.5 nM; Kd (LbuC2c2-dHEPN1/dHEPN2 [1]): 43.3 ± 11.5 nM; Kd (LbuC2c2-dHEPN1): 15.2 ± 3.2 nM

B2: crRNA-A_GG guide + on-target A ssRNA (mixed)
RNA 1: B1 RNA
RNA 2: GGCACACCCGCAGGGGGGAGCCAAAAGGGUCAUCAUCUCUGCCCCCACAGCAGAAGCCCC
Question: With B2 as the binder, how does the Kd (LbuC2c2-dHEPN1/dHEPN2 [2]) read?
Answer: 1.62 ± 0.43 nM

B3: mature crRNA-A_GA (crLbu_A_mature_GA_SCK340) (structured_RNA)
RNA: B1 RNA with G2A
Question: B3 was tested. Which Kd (LbuC2c2-R1079A) did it give?
Answer: 2.52 ± 0.5 nM
